The test has as its target eIF3a-HA (Trypanosoma brucei (endogenous in procyclic form strain 29-13)). The test can be described thus: proximity ligation.

DRBD18 (natural protein) showed a PLA dots per cell (dots per cell) of 8.

The record behind these values is article PMC10653379.
